This note sets out measurements from patent US12098164 (KOREA UNIVERSITY RESEARCH AND BUSINESS FOUNDATION, dated 2024).

This assay has as its target human serum albumin (HSA) (human, UniProt P02768 25-609). Description: ELISA, HSA coated at 2 ug/ml, anti-His tag primary antibody and HRP secondary antibody, absorbance at 450 nm. Background: In an ELISA, binding on a coated surface is turned into a signal by an enzyme label.

human serum albumin (HSA), sequence (P02768 25-609 limits assumed): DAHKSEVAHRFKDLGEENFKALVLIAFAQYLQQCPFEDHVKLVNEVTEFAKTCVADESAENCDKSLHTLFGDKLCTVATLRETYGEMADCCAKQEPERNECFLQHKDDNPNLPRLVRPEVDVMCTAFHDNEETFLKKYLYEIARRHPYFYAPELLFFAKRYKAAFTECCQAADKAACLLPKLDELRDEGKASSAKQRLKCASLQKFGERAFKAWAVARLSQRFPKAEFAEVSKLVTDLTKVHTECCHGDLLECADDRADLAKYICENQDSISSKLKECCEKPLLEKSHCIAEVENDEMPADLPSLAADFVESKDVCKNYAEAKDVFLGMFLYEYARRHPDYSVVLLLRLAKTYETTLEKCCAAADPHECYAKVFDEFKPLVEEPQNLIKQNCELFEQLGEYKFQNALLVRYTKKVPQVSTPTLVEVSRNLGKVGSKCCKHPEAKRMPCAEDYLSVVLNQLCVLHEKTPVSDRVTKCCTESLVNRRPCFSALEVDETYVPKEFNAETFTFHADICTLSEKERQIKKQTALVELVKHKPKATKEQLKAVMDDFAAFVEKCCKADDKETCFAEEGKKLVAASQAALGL

B1: hepatitis B virus capsid protein nanoparticles (HBVC) (other)
chain: HHHHHHDIDPYKEFGASVELLSFLPSDFFPSIRDLLDTASALYREALESPEHCSPHHTALRQAILCWGELMNLATWVGSNLEDPASRELVVSYVNVNMGLKIRQLLWFHISCLTFGRETVLEYLVSFGVWIRTPPAYRPPNAPILSTLPETTVV
notes: also called HBVC (aff-, ABP-)
For the molecule B1, the binding result was “no binding (tested: 0.001 to 1.5 mg/ml tested)”.
